In publication PMC3227520 (Biochemistry, 2011):
Read-outs that look alike come from different tables or passages of the source. Each block holds one binder with its values, some of them ahead of it. Primed or numbered codes have the meaning given here. *: point of attachment. FITC = O=C1OC2(c3ccc(O)cc3Oc3cc(O)ccc32)c2ccc(NC(=S)*)cc21; FITC′ = fluorescein isothiocyanate label; Ahx = NCCCCCC(=O)O

B1: wild-type S100A4 (native noncovalent S100A4 dimer) (natural protein)
chain: not shown
B3: FITC-MIIA^1904–1927 (nonmuscle myosin-IIA 24mer peptide) (peptide)
peptide: {FITC-Ahx}-TETADAMNREVSSLKNKLRRGDLP-NH2
SMILES: CSCC[C@H](NC(=O)[C@H](C)NC(=O)[C@H](CC(=O)O)NC(=O)[C@H](C)NC(=O)[C@@H](NC(=O)[C@H](CCC(=O)O)NC(=O)[C@@H](NC(=O)CCCCCNC(=S)Nc1ccc2c(c1)C(=O)OC21c2ccc(O)cc2Oc2cc(O)ccc21)[C@@H](C)O)[C@@H](C)O)C(=O)N[C@@H](CC(N)=O)C(=O)N[C@@H](CCCNC(=N)N)C(=O)N[C@@H](CCC(=O)O)C(=O)N[C@H](C(=O)N[C@@H](CO)C(=O)N[C@@H](CO)C(=O)N[C@@H](CC(C)C)C(=O)N[C@@H](CCCCN)C(=O)N[C@@H](CC(N)=O)C(=O)N[C@@H](CCCCN)C(=O)N[C@@H](CC(C)C)C(=O)N[C@@H](CCCNC(=N)N)C(=O)N[C@@H](CCCNC(=N)N)C(=O)NCC(=O)N[C@@H](CC(=O)O)C(=O)N[C@@H](CC(C)C)C(=O)N1CCC[C@H]1C(N)=O)C(C)C

Tests used:
[1] = target: B3; test: fluorescence polarisation
[2] = target: B1; test: fluorescence polarisation
[3] = target: the molecule itself; test: cross-linking
[4] = target: B1; test: fluorescence polarisation; remark: listed apart in the source

Binder: B1
stoichiometry N [1]: 1 S100A4 dimer per peptide

Kd [2]: 1.8 ± 0.2 µM
Binder: {FITC′-Ahx}-DAMNREVSSLKNKLRR-NH2 [FITC-MIIA^1908–1923 (nonmuscle myosin-IIA peptide, minimal S100A4 binding site)]

B2: MIIA^1851–1960 (nonmuscle myosin-IIA heavy chain fragment) (domain or fragment, UniProt P35579 1851-1960, looked up)
chain: VDDERRNAEQYKDQADKASTRLKQLKRQLEEAEEEAQRANASRRKLQRELEDATETADAMNREVSSLKNKLRRGDLPFVVPRRMARKGAGDGSDEEVDGKADGAEAKPAE
stoichiometry N [3]: 2

Binder: B3
Kd [4]: 0.26 ± 0.03 µM
